From paper PMC10406935

How the values were obtained:
[1] = biological target: MslH (lasso peptide epimerase), N-terminally His6-tagged, wild type (Streptomyces griseorubiginosus); experiment: SEC; gel-filtration of purified recombinant His6-MslH; apparent molecular weight against the 49.4 kDa calculated for the monomer
[2] = biological target: MslH (lasso peptide epimerase), N-terminally His6-tagged, wild type (Streptomyces griseorubiginosus); experiment: crystal structure; MslH:apo, His6-MslH 5 mg/ml, sitting-drop vapor diffusion, 20 °C; space group I422, one monomer in the asymmetric unit; 2.30 Å
[3] = biological target: MslH (lasso peptide epimerase), N-terminally His6-tagged, wild type (Streptomyces griseorubiginosus); experiment: crystal structure; co-crystallisation: purified His6-MslA analogue-MslB1 complex mixed with His6-MslH (5 mg/ml) at 1.2:1 mole ratio 16 h before the precipitant; sitting drops, 20 °C; one monomer in the asymmetric unit

Measured: stoichiometry N

MslH (lasso peptide epimerase), N-terminally His6-tagged, wild type (enzyme)
8: all assays above
